Patent US20090074780A1 (ESBATECH AN ALCON BIOMEDICAL RESEARCH UNIT, published 2009)
Blank lines part the entries; values can stand above or below the molecule they belong to.

Experiments:
[1] = target: antigen of ESBA105 (not named in the examples) (UniProt P01375); test: assay not described
[2] = target: T1, antigen of ESBA105 (not named in the examples) (UniProt P01375 77-233, limits assumed); test: assay not described; reference itself
[3] = target: T1, antigen of ESBA105 (not named in the …); test: assay not described

Sequence of antigen of ESBA105 (not named in the examples) (UniProt P01375) (P01375 77-233 limits assumed): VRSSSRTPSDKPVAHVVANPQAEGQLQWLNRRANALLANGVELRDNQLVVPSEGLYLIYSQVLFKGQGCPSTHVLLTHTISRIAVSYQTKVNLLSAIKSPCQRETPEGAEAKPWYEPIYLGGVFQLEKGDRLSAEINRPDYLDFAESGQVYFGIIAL
T1 sequence (P01375 77-233 limits assumed): as above

Activity relative to ESBA105 (relative to ESBA105) [1]: 1.2
Molecule: ESBA105 VH V103T (scFv)

Binding Activity (relative to parental ESBA105) (relative to parental ESBA105) [1]: 1.2
Molecule: ESBA105_VL V3Q (scFv)

Activity relative to ESBA105 [2]: 1 relative to ESBA105
B1: ESBA105 (scFv)
chain: MADIVMTQSPSSLSASVGDRVTLTCTASQSVSNDVVWYQQRPGKAPKLLIYSAFNRYTGVPSRFSGRGYGTDFTLTISSLQPEDVAVYYCQQDYNSPRTFGQGTKLEVKRGGGGSGGGGSGGGGSSGGGSQVQLVQSGAEVKKPGASVKVSCTASGYTFTHYGMNWVRQAPGKGLEWMGWINTYTGEPTYADKFKDRFTFSLETSASTVYMELTSLTSDDTAVYYCARERGDAMDYWGQGTLVTVSS

Binding Activity (relative to parental ESBA105) [3]: 1 relative to parental ESBA105
B2: ESBA105_QC15.2 (scFv, V domains shown)
VH: QVQLVQSGAEVKKPGASVKVSCTASGYTFTHYGMNWVRQAPGRGLEWMGWINTYTGEPTYADKFKDRITFSLETSASTVYMELTSLTSDDTAVYYCARERGDAMDYWGQGTLVTVSS
VL: DIVMTQSPSSLSASVGDRVTLTCTASQSVSNDVVWYQQRPGKAPKLLIYSAFNRYTGVPSRFSGRGYGTDFTLTISSLQPEDVAVYYCQQDYNSPRTFGQGTKLEVK
